# Laboratory results taken from paper PMC4981310 (PLoS Pathogens, 2016).
# System: Nc1ncnc2c1ncn2[C@@H]1O[C@H](COP(=O)(O)OP(=O)(O)O[C@H]2O[C@H](CO)[C@@H](O)[C@H](O)[C@H]2O)[C@@H](O)[C@H]1O
# Experiment: purified protein
# Details: Mg2+ (stimulates kcat) compulsory-order ternary-complex mechanism; ADP-glucose binds before glucose 1-phosphate
substance,measurement,value
GlgA (Mycobacterium tuberculosis H37Rv),Km,46 ± 4 µM
same,Vmax,21.4 µmol/min/mg
same,kcat,15.4 ± 0.3 s⁻¹
